The supplement of paper PMC9112550, “Optimization of the antimicrobial peptide Bac7 by deep mutational scanning” (BMC Biology, 2022)

system: Escherichia coli TOP10; assay: shrunken log2 fold change of peptide-encoding DNA abundance (4.5 h post-induction vs induction); higher = less antimicrobial activity (less host growth inhibition); details: time post-induction: 4.5 h; library: site-saturation at positions 5, 18, 19, 20
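Further: peptides expressed intracellularly from a pBAD plasmid library in pooled LB shake-flask culture, induced with 0.3% L-arabinose, DNA abundance read by NGS, three biological replicates, DESeq2 with apeglm shrinkage.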

Sequence	shrunken log2 fold change
RRIRCRPPRLPRPRPRPVRQPRP	0.126
RRIRGRPPRLPRPRPRPLWNPRP	0.116
RRIRERPPRLPRPRPRPVGNPRP	-0.191
RRIRNRPPRLPRPRPRPCYGPRP	-0.102
RRIRPRPPRLPRPRPRPWMRPRP	0.715
RRIRWRPPRLPRPRPRPLESPRP	0.176
RRIRSRPPRLPRPRPRPKQMPRP	-0.0354
RRIRCRPPRLPRPRPRPNRSPRP	-0.359
RRIRHRPPRLPRPRPRPKHKPRP	-0.297
RRIRSRPPRLPRPRPRPKISPRP	0.0778
RRIRMRPPRLPRPRPRPDKKPRP	-0.0148
RRIRWRPPRLPRPRPRPSHLPRP	-0.517
RRIRCRPPRLPRPRPRPPVYPRP	0.000934
RRIRKRPPRLPRPRPRPKFLPRP	0.119
RRIRLRPPRLPRPRPRPMKIPRP	-0.028
RRIRGRPPRLPRPRPRPNQMPRP	1.6
RRIRYRPPRLPRPRPRPIDIPRP	-0.0256
RRIRNRPPRLPRPRPRPEKDPRP	-0.0532
RRIRKRPPRLPRPRPRPPLHPRP	0.694
RRIRDRPPRLPRPRPRPSECPRP	-0.043
RRIRWRPPRLPRPRPRPQGEPRP	0.29
RRIRSRPPRLPRPRPRPRELPRP	0.0421
RRIRSRPPRLPRPRPRPFWDPRP	0.0853
RRIRQRPPRLPRPRPRPPFEPRP	0.333
RRIRVRPPRLPRPRPRPCFGPRP	-0.263

Sequence	shrunken log2 fold change
RRIRERPPRLPRPRPRPHAPPRP	-0.0944
RRIRERPPRLPRPRPRPHSPPRP	-0.372
RRIRFRPPRLPRPRPRPPGVPRP	0.168
RRIRSRPPRLPRPRPRPYEYPRP	-0.55
RRIRPRPPRLPRPRPRPRHKPRP	-0.0467
RRIRTRPPRLPRPRPRPDHLPRP	0.0101
RRIRLRPPRLPRPRPRPGKTPRP	0.086
RRIRERPPRLPRPRPRPQRPPRP	-0.0471
RRIRGRPPRLPRPRPRPKWMPRP	0.58
RRIRDRPPRLPRPRPRPGKHPRP	-0.0728
RRIRRRPPRLPRPRPRPLNLPRP	0.0248
RRIRIRPPRLPRPRPRPQIWPRP	-0.174
RRIRSRPPRLPRPRPRPLREPRP	0.369
RRIRFRPPRLPRPRPRPKTHPRP	-0.0208
RRIRFRPPRLPRPRPRPWTFPRP	-0.797
RRIRKRPPRLPRPRPRPCDGPRP	0.00408
RRIRTRPPRLPRPRPRPCCKPRP	-0.279
RRIRCRPPRLPRPRPRPDFKPRP	-0.219
RRIRARPPRLPRPRPRPGKNPRP	0.124
RRIRGRPPRLPRPRPRPFVGPRP	-0.26
RRIRNRPPRLPRPRPRPYKEPRP	-0.0525
RRIRKRPPRLPRPRPRPEEKPRP	0.0431
RRIRARPPRLPRPRPRPRAMPRP	0.808
RRIRQRPPRLPRPRPRPMQVPRP	-0.0356
RRIRARPPRLPRPRPRPTVSPRP	0.136

Sequence	shrunken log2 fold change
RRIRMRPPRLPRPRPRPPKAPRP	1.02
RRIRIRPPRLPRPRPRPQARPRP	-0.115
RRIRSRPPRLPRPRPRPKLFPRP	0.172
RRIRFRPPRLPRPRPRPWVLPRP	-0.0735
RRIRRRPPRLPRPRPRPFHYPRP	-0.259
RRIRLRPPRLPRPRPRPCPHPRP	-0.0552
RRIRIRPPRLPRPRPRPPTVPRP	-0.155
RRIRIRPPRLPRPRPRPNHIPRP	-1.16
RRIRPRPPRLPRPRPRPPPVPRP	0.744
RRIRERPPRLPRPRPRPMIHPRP	-0.65
RRIRERPPRLPRPRPRPICYPRP	-0.4
RRIRWRPPRLPRPRPRPHNCPRP	-0.349
RRIRIRPPRLPRPRPRPENNPRP	-0.36
RRIRPRPPRLPRPRPRPWRVPRP	0.244
RRIRKRPPRLPRPRPRPDDKPRP	0.107
RRIRVRPPRLPRPRPRPMQPPRP	-0.0152
RRIRGRPPRLPRPRPRPTCEPRP	1.1
RRIRGRPPRLPRPRPRPCHAPRP	0.274
RRIRQRPPRLPRPRPRPTTFPRP	-0.485
RRIRVRPPRLPRPRPRPMLVPRP	0.0916
RRIRGRPPRLPRPRPRPIEHPRP	0.125
RRIRHRPPRLPRPRPRPTKYPRP	-0.345
RRIRVRPPRLPRPRPRPDFYPRP	-0.25
RRIRWRPPRLPRPRPRPSNQPRP	-0.561
RRIRMRPPRLPRPRPRPGFLPRP	0.113

Sequence	shrunken log2 fold change
RRIRPRPPRLPRPRPRPGYCPRP	-0.147
RRIRYRPPRLPRPRPRPCVFPRP	-0.123
RRIRIRPPRLPRPRPRPECHPRP	0.0255
RRIRNRPPRLPRPRPRPIRDPRP	0.201
RRIRPRPPRLPRPRPRPGDKPRP	-0.307
RRIRRRPPRLPRPRPRPDARPRP	0.553
RRIRCRPPRLPRPRPRPHHQPRP	-0.278
RRIRHRPPRLPRPRPRPDYSPRP	-0.657
RRIRYRPPRLPRPRPRPPCQPRP	-0.212
RRIRTRPPRLPRPRPRPCPYPRP	-0.411
RRIRNRPPRLPRPRPRPRQTPRP	0.112
RRIRVRPPRLPRPRPRPPMAPRP	0.228
RRIRKRPPRLPRPRPRPKKFPRP	0.0892
RRIRERPPRLPRPRPRPKTCPRP	-0.267
RRIRSRPPRLPRPRPRPAEHPRP	0.0851
RRIRKRPPRLPRPRPRPKIHPRP	-0.152
RRIRTRPPRLPRPRPRPRDYPRP	0.104
RRIRARPPRLPRPRPRPKEAPRP	0.516
RRIRARPPRLPRPRPRPHFSPRP	0.0805
RRIRNRPPRLPRPRPRPMLWPRP	0.0244
RRIRYRPPRLPRPRPRPWSRPRP	-0.205
RRIRYRPPRLPRPRPRPCPPPRP	-0.839
RRIRLRPPRLPRPRPRPELWPRP	0.626
RRIRMRPPRLPRPRPRPGQCPRP	0.234
RRIRARPPRLPRPRPRPVQTPRP	0.264

Sequence	shrunken log2 fold change
RRIRTRPPRLPRPRPRPMKPPRP	-0.0805
RRIRERPPRLPRPRPRPNYNPRP	-1.1
RRIRIRPPRLPRPRPRPLFCPRP	-0.517
RRIRERPPRLPRPRPRPTHIPRP	-0.924
RRIRSRPPRLPRPRPRPSPLPRP	-0.324
RRIRARPPRLPRPRPRPIDQPRP	0.444
RRIRHRPPRLPRPRPRPIGVPRP	0.148
RRIRIRPPRLPRPRPRPAIAPRP	-0.206
RRIRWRPPRLPRPRPRPTHNPRP	0.0181
RRIRHRPPRLPRPRPRPWSEPRP	0.00408
RRIRRRPPRLPRPRPRPRAYPRP	-0.0105
RRIRFRPPRLPRPRPRPIGDPRP	-0.033
RRIRSRPPRLPRPRPRPTHEPRP	-0.0435
RRIRLRPPRLPRPRPRPEAFPRP	0.0443
RRIRWRPPRLPRPRPRPKKVPRP	0.0465
RRIRDRPPRLPRPRPRPWVYPRP	-0.0138
RRIRDRPPRLPRPRPRPVSNPRP	0.00716
RRIRIRPPRLPRPRPRPNQTPRP	-0.00271
RRIRWRPPRLPRPRPRPRLQPRP	0.642
RRIRHRPPRLPRPRPRPDTQPRP	0.047
RRIRVRPPRLPRPRPRPKCWPRP	0.313
RRIRYRPPRLPRPRPRPIDTPRP	-0.0431
RRIRARPPRLPRPRPRPYPAPRP	-0.146
RRIRARPPRLPRPRPRPELIPRP	0.606
RRIRHRPPRLPRPRPRPVFAPRP	0.12

Sequence	shrunken log2 fold change
RRIRDRPPRLPRPRPRPQSYPRP	-0.495
RRIRFRPPRLPRPRPRPINMPRP	-0.319
RRIRARPPRLPRPRPRPGVEPRP	0.118
RRIRWRPPRLPRPRPRPQYMPRP	-0.164
RRIRVRPPRLPRPRPRPIFFPRP	0.125
RRIRGRPPRLPRPRPRPRIHPRP	0.273
RRIRVRPPRLPRPRPRPWYDPRP	-0.00243
RRIRYRPPRLPRPRPRPRYDPRP	-0.21
RRIRGRPPRLPRPRPRPYKRPRP	-0.217
RRIRGRPPRLPRPRPRPFPCPRP	-0.0294
RRIRSRPPRLPRPRPRPFQHPRP	-0.0131
RRIRFRPPRLPRPRPRPVIAPRP	-0.186
RRIRERPPRLPRPRPRPEFSPRP	-0.178
RRIRYRPPRLPRPRPRPHKQPRP	-0.0853
RRIRARPPRLPRPRPRPQFNPRP	-0.0606
RRIRVRPPRLPRPRPRPAMAPRP	0.418
RRIRERPPRLPRPRPRPPQMPRP	0.208
RRIRRRPPRLPRPRPRPIDEPRP	-0.106
RRIRMRPPRLPRPRPRPLMCPRP	-0.249
RRIRVRPPRLPRPRPRPAFGPRP	0.18
RRIRMRPPRLPRPRPRPHNYPRP	-0.0828
RRIRSRPPRLPRPRPRPMCIPRP	-0.0138
RRIRDRPPRLPRPRPRPWCQPRP	-0.0971
RRIRCRPPRLPRPRPRPEYFPRP	-0.0582
RRIRERPPRLPRPRPRPCWTPRP	0.0421
